Positions count from the first letter of the chain named. Values joined by “and” are separate entries in the source; they are usually repeats but may differ in a detail not shown here. Equal values may be shown once.
B1: NPB-303 humanized anti-BDCA2 monoclonal antibody (huIgG1) (antibody, V domains shown)
VH: EVQLVESGGGLVKPGGSLRLSCAASGFTFSTMSWVRQAPGKRLEWVASISSGGSTYYPDSVKGRFTISRDNAKNSLYLQMNSLRAEDTAVYYCARPSYDGYSSWFAYWGQGTLVTVSS
VL: EIVLTQSPATLSLSPGERATLSCKASQSVDYDGDGFMNWYQQKPGQAPRLLIYTASNLESGVPARFSGSGSGTDFTLTISSLEPEDFAVYYCQQSNEDPWTFGGGTKVEIKR
notes: Humanized from mouse mAb 12b, human IgG1/kappa
B2: NPB-303_A.D (antibody, V domains shown)
VH: B1 VH with D99E
VL: EIVLTQSPATLSLSPGERATLSCKASQSVDYEGEGFMNWYQQKPGQAPRLLIYTASNLESGVPARFSGSGSGTDFTLTISSLEPEDFAVYYCQQSNEDPWTFGGGTKVEIK
notes: whole antibody captured by anti-human Fc; Made at small (3 mL) and large (100 mL) scale
B3: NPB-303_A (antibody, V domains shown)
VH: B1 VH with D99E
VL: B2 VL with E32D, E34D
notes: whole antibody captured by anti-human Fc
B4: NPB-303_A.G (antibody, V domains shown)
VH: B1 VH with D99E
VL: B2 VL with E32D, G33A
notes: as for B3
B5: NPB-303_C (antibody, V domains shown)
VH: B1 VH with D99S
VL: B2 VL with E32D, E34D
notes: as for B3
B6: NPB-303_D (antibody, V domains shown)
VH: B1 VH
VL: B2 VL
notes: as for B3
B7: NPB-303_B.F (antibody, V domains shown)
VH: B1 VH with G100A
VL: B2 VL with E34D, G35A
notes: as for B3
B8: NPB-303_B (antibody, V domains shown)
VH: B1 VH with G100A
VL: B2 VL with E32D, E34D
notes: as for B3
B9: NPB-303_A.F (antibody, V domains shown)
VH: B1 VH with D99E
VL: B2 VL with E34D, G35A
notes: as for B3
B10: NPB-303_C.E (antibody, V domains shown)
VH: B1 VH with D99S
VL: B2 VL with E32D, G33A, E34D, G35A
notes: as for B3
B11: NPB-303_B.H (antibody, V domains shown)
VH: B1 VH with G100A
VL: B2 VL with E32S, E34S
notes: as for B3
B12: NPB-303_A.H (antibody, V domains shown)
VH: B1 VH with D99E
VL: B2 VL with E32S, E34S
notes: as for B3
B13: NPB-303_C.H (antibody, V domains shown)
VH: B1 VH with D99S
VL: B2 VL with E32S, E34S
notes: as for B3
B14: NPB-303_B.E (antibody, V domains shown)
VH: B1 VH with G100A
VL: B2 VL with E32D, G33A, E34D, G35A
notes: as for B3
B15: NPB-303_A.E (antibody, V domains shown)
VH: B1 VH with D99E
VL: B2 VL with E32D, G33A, E34D, G35A
notes: as for B3
B16: NPB-303_G (antibody, V domains shown)
VH: B1 VH
VL: B2 VL with E32D, G33A
notes: as for B3
B17: NPB-303_C.F (antibody, V domains shown)
VH: B1 VH with D99S
VL: B2 VL with E34D, G35A
notes: as for B3
B18: NPB-303_B.G (antibody, V domains shown)
VH: B1 VH with G100A
VL: B2 VL with E32D, G33A
notes: as for B3
B19: NPB-303_F (antibody, V domains shown)
VH: B1 VH
VL: B2 VL with E34D, G35A
notes: as for B3

These molecules were tested against human BDCA2 on human plasmacytoid dendritic cells (human) (UniProt Q8WTT0) (assay: flow cytometry on human PBMC with APCCy7-labelled control antibody, gate Lin- then CD4+CD123+ (pDC)).

| Molecule | % of the gated Lin-CD123+ cells in Q2 (CD123+, APCCy7+) [%] |
| --- | --- |
| mIgG1-APCCy7 (antibody) | 7.29 |

What follows are molecules tested against T1, recombinant human BDCA2 extracellular domain (UniProt Q8WTT0, residues 45-213) (human, UniProt Q8WTT0 45-213) (assay: SPR / in vitro binding to BDCA2 proteins (FIG. 7, FIG. 8)).
T1 construct: range 45-213; also called recombinant BDCA2 proteins; BDCA2 proteins
T1 sequence (looked up): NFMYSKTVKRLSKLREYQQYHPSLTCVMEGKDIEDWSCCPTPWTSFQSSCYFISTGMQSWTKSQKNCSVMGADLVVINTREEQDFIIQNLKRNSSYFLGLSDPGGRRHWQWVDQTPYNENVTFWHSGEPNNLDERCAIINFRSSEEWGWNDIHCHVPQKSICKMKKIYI

| Molecule | Kd [nM] | koff [s⁻¹] | kon [M⁻¹ s⁻¹] |
| --- | --- | --- | --- |
| B1 | ~1 | ~0.00033 | ~210000 |

Each molecule was assayed against T2, recombinant rhesus BDCA2 extracellular domain (UniProt A0A1D5QFY5, residues 45-212) (rhesus, UniProt G7N5W2 45-211) (assay: SPR (Biacore), antibody captured on Protein A chip, recombinant BDCA2 ECD flowed over).
T2 construct: also called Monkey BDCA2
T2 sequence: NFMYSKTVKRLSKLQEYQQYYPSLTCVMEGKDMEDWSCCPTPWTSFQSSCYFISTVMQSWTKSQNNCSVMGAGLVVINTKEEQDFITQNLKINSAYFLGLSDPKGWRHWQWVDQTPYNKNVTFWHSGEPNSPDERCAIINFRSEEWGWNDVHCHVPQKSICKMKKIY
Procedure: (§1) BDCA2 antibody binding kinetics were measured using a Biacore surface plasmon resonance (SPR) instrument (GE Life Sciences). Briefly, anti-BDCA2 antibodies were captured on a Protein A sensor chip (GE Life Sciences). The recombinant BDCA2 proteins were then flowed over the captured antibodies over a range of concentrations, at a rate of 50 μL/minute. The data was analyzed to determine kinetic constants using the BIAevaluation software package (GE Life Sciences).

| Molecule | Kd [nM] | koff [s⁻¹] | kon [M⁻¹ s⁻¹] |
| --- | --- | --- | --- |
| B1 | 9.2 | 0.00157 | 170000 |

The molecules below were run against T1, recombinant human BDCA2 extracellular … in the same assay as above.
Procedure: as §1

| Molecule | koff [s⁻¹] |
| --- | --- |
| B1 | 0.000327 |

These molecules were tested against T1, recombinant human BDCA2 extracellular … (assay: SPR (Biacore), recombinant BDCA2; large-scale (100 mL) batch).
Procedure: (§2) BDCA2 antibody binding kinetics were measured using a Biacore surface plasmon resonance (SPR) instrument (GE Life Sciences). Briefly, anti-BDCA2 antibodies were captured on an anti-human Fc chip. The recombinant BDCA2 proteins were then flowed over the captured antibodies over a range of concentrations, at a rate of 50 μL/minute. The data was analyzed to determine kinetic constants using the BIAevaluation software package (GE Life Sciences). The sensorgrams of SPR based affinity testing for all 24 antibodies are shown in FIG. 55, and the biophysical characteristics of all 24 antibodies are summarized in Table 5.

| Molecule | Kd [nM] | koff [s⁻¹] | kon [M⁻¹ s⁻¹] |
| --- | --- | --- | --- |
| B2 | 0.927 | 0.000133 | 144000 |

What follows are molecules tested against T3, BDCA-2 antigen (Biorbyt CLEC4C orb358925) (human, UniProt Q8WTT0) (assay: ELISA, plate coated with BDCA-2 antigen, detection with HRP anti-human IgG Fc, A450 corrected by A590).
T3 construct: recombinant protein, construct not described; It is kept apart from m4 because it is a different preparation; also called human BDCA2 antigen
T3 sequence (antigen, looked up): T1 sequence (looked up)
Procedure: Briefly, Nunc MaxiSorp 96-well plates were coated with BDCA-2 antigen (Biorbyt CLEC4C orb358925) overnight at 4° C. After washing, the plates were blocked by the Blocking Buffer (1% BSA in 1×PBS). […] After 1 hour incubation at room temperature, the plates were washed and added with the secondary antibody (HIRP-conjugated Goat anti-Human IgG Fc antibody; ThermoFisher A18829) for 1 hour at RT. The signals were developed by adding TMB substrate reagent (ThermoFisher 34021). The signals at 450 nm and 590 nm were read on the plate reader.

| Molecule | EC50 (read off the curve) |
| --- | --- |
| B1 | ~0.5 nM and ~0.3 nM |

What follows are molecules tested against T1, recombinant human BDCA2 extracellular … (assay: SPR (Biacore), antibody captured on anti-human Fc chip, recombinant BDCA2 flowed over; small-scale batch).
Procedure: as §2

| Molecule | Kd [nM] | koff [s⁻¹] | kon [M⁻¹ s⁻¹] |
| --- | --- | --- | --- |
| B1 | 1.19 | 0.000156 | 131000 |
| B3 | 1.01 | 0.000145 | 144000 |
| B2 | 1.06 | 0.000138 | 130000 |
| B4 | 0.998 | 0.000142 | 142000 |
| B5 | 1.2 | 0.000165 | 138000 |
| B6 | 1.25 | 0.000144 | 115000 |
| B7 | 3.44 | 0.000232 | 67600 |
| B8 | 2.06 | 0.000193 | 93900 |
| B9 | 1.41 | 0.000164 | 116000 |
| B10 | 1.89 | 0.000237 | 125000 |
| B11 | 3.47 | 0.000272 | 78500 |
| B12 | 1.49 | 0.000159 | 107000 |
| B13 | 2.02 | 0.000197 | 97400 |
| B14 | 4.77 | 0.000409 | 85600 |
| B15 | 1.49 | 0.000183 | 123000 |
| B16 | 1.31 | 0.000166 | 126000 |
| B17 | 1.77 | 0.000195 | 110000 |
| B18 | 2.63 | 0.000286 | 109000 |
| B19 | 1.74 | 0.000187 | 107000 |

These molecules were tested against T1, recombinant human BDCA2 extracellular … (assay: SPR (Biacore), antibody as ligand, HsCD303HIS as sample, 25 °C, 1:1 Binding fit; Table 1 prints 7.29 x 10^5, but the sheet's exponent fits the printed kd 3.271E-4 and KD 4.487E-9).

| Molecule | kon [M⁻¹ s⁻¹] |
| --- | --- |
| B1 | 72900 |

The molecules below were run against T4, human BDCA2 on human plasmacytoid dendritic cells (human, UniProt Q8WTT0 1-213) (assay: cell-based or functional assay).
T4 sequence (looked up): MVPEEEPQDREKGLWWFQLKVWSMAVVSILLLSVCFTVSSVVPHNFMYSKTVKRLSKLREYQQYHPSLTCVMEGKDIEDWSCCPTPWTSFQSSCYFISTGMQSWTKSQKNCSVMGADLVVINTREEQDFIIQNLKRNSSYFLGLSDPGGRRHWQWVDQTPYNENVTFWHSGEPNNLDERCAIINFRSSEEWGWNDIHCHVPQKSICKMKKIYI

| Molecule | IC50 of inhibition of IFNα production by CpG-stimulated human PBMC (multiple donors) [ng/mL] |
| --- | --- |
| B1 | ~3 |

— patent US20240092914A1 (NEW PARADIGM BIOSCIENCES USA, published 2024)
